Results: PMC2676678

What was measured:
Conditions in all cases: holding potential -50 mV; Na+ medium (about 96 mM Na+); Hill coefficient about 1
[1] = substrate: N[C@H](CS)C(=O)O; format: cell-based, Drosophila melanogaster
[2] = substrate: N[C@@H](Cc1c[nH]cn1)C(=O)O; format: cell-based, Drosophila melanogaster
[3] = substrate: N[C@@H](Cc1ccccc1)C(=O)O; format: cell-based, Drosophila melanogaster
[4] = substrate: N[C@H](Cc1ccc(O)cc1)C(=O)O; format: cell-based, Drosophila melanogaster
[5] = substrate: N[C@@H](CS)C(=O)O; format: cell-based, Drosophila melanogaster
[6] = substrate: N[C@@H](Cc1ccc(O)c(O)c1)C(=O)O; format: cell-based, Drosophila melanogaster
[7] = substrate: CSCC[C@H](N)C(=O)O; format: cell-based, Drosophila melanogaster
[8] = substrate: N[C@@H](Cc1ccc(O)cc1)C(=O)O; format: cell-based, Drosophila melanogaster
[9] = substrate: CSCC[C@@H](N)C(=O)O; format: cell-based, Drosophila melanogaster
[10] = substrate: O=C(O)[C@@H]1CCCN1; test: cells, lysate or membranes
[11] = substrate: N[C@H](Cc1ccccc1)C(=O)O; test: cells, lysate or membranes
[12] = substrate: CC(C)C[C@H](N)C(=O)O; test: cells, lysate or membranes
[13] = substrate: N[C@@H](CO)C(=O)O; test: cells, lysate or membranes
[14] = substrate: C[C@H](N)C(=O)O; test: cells, lysate or membranes
[15] = substrate: O=C(O)[C@H]1CCCN1; test: cells, lysate or membranes
[16] = substrate: CC(C)C[C@@H](N)C(=O)O; test: cells, lysate or membranes
[17] = substrate: CC(C)[C@@H](N)C(=O)O; test: cells, lysate or membranes
[18] = substrate: N[C@H](CO)C(=O)O; test: cells, lysate or membranes
[19] = substrate: CC[C@H](C)[C@H](N)C(=O)O; test: cells, lysate or membranes
[20] = substrate: CC(C)[C@H](N)C(=O)O; test: cells, lysate or membranes

B1: DmNAT1 (Drosophila melanogaster) (protein)
chain: MELKGVQPSNGSSNGSGNGATNAASTEKTDAEKPTAERTNWGNGLEFLMSCISVSVGLGNVWRFPFTAYENGGGAFLIPYIIVLFLIGKPMYYLEMIMGQFTSQGTVKIWSVVPGFVGVGYGQAFGTICIISYYSSLLALTLYYLFVSFQSELPWSYCRDEWTNCVNSRPQEYVDNLLTGVSLANESARNLSGIVANDETEKLQSSSELYFLNVVIKEKLDISDGVGDPDWKLTLALFVAWVVIFLVIMRGVKSSGKAAYFLALFPYVVLFVLLIRAVTLEGARDGILFFLEPQWGELLNPTVWKEAVVQCFFSLAVGSGPIIMFASYNRFDHGIYRDAMIVTTLDTLTSLLGGITIFAILGNLAHNLQIENIRDVVRSGTGLAFISYPDAISKFQAVPQLFSVLFFFMLFVLGIGSIVALQSTIVTIICDQFKGWKYWKVALTTSVCGFLMGLVYVTPGGQWILTLVDFYGGTYVVFILAIFELAGIVWVYGLQNFCDDIEFMCNRRVSLYWRVCWSFFTPVMMIIIFIYSMVTIEPIKYSELYFPEAANIAGWLLFAIGAAQFPLWGLWYISRHPQGTYWKSLKASLKPSDRWGPANPEIRREWVIFKNQKAAQRATQKDTSKLGFFWRKVANFCGSNK
K0.5 [1]: 141.0 ± 28.6 µM
K0.5 [2]: 188.5 ± 37.9 µM
K0.5 [3]: 58.3 ± 5.3 µM
K0.5 [4]: 64.3 ± 15.3 µM
K0.5 [5]: 199.1 ± 18.8 µM
K0.5 [6]: 242.3 ± 57.9 µM
K0.5 [7]: 39.8 ± 12.7 µM
K0.5 [8]: 96.8 ± 17.9 µM
K0.5 [9]: 24.7 ± 9.9 µM
K0.5 [10]: 127.6 ± 44.9 µM
K0.5 [11]: 55.2 ± 10.3 µM
K0.5 [12]: 126.2 ± 39.8 µM
K0.5 [13]: 119.7 ± 18.6 µM
K0.5 [14]: 255.6 ± 76.8 µM
K0.5 [15]: 142.4 ± 38.5 µM
K0.5 [16]: 92.2 ± 34.8 µM
K0.5 [17]: 170.2 ± 38.3 µM
K0.5 [18]: 128.1 ± 21.3 µM
K0.5 [19]: 130.1 ± 37.5 µM
K0.5 [20]: 96.8 ± 20.2 µM
